Reference: PMC6325134 (Nature Communications, 2019)

Target: T1, HIV-1 envelope glycoprotein Env_(JR-CSF) on intact virions (HIV-1 group M subtype B, isolate JR-CSF, UniProt P20871)
T1 construct: also called JR-CSF Env-WT; JR-CSF virions; source: 293T cells transfected with the Env(-) pCHIV plasmid and the full-length JR-CSF Env clone; on pseudovirions purified by ultracentrifugation through a 20% sucrose cushion
Test: STED microscopy of fluorescent Fab on single virions
Details: one partner purified

| Binder | binding result |
| --- | --- |
| Fab 10E8 3R conjugated with KK114 (Fab, V domains shown, also called 3R mutant) VH: EVQLVESGGGLVKPGGSLRLSCSASGFDFDNAWMTWVRQPPGKGLEWVGRITGPGEGWSVDYAAPVEGRFTISRLNSINFLYLEMNNLRMEDSGLYFCARTGKYYDFWSGYPPGEEYFQDWGRGTLVTVSS VL: SYELTQETGVSVALGRTVTITCRGDSLRRHYASWYQKKPGQAPILLFYGKRNRPSGVPDRFSGSARGNRASLTISGAQAEDDAEYYCSSRDKSGSRLSVFGGGTKLTVL | binds |
| Fab 10E8 3R-WG conjugated with KK114 (Fab, V domains shown, also called 3R/WG mutant) VH: EVQLVESGGGLVKPGGSLRLSCSASGFDFDNAWMTWVRQPPGKGLEWVGRITGPGEGWSVDYAAPVEGRFTISRLNSINFLYLEMNNLRMEDSGLYFCARTGKYYDFGSGYPPGEEYFQDWGRGTLVTVSS VL: SYELTQETGVSVALGRTVTITCRGDSLRRHYASWYQKKPGQAPILLFYGKRNRPSGVPDRFSGSARGNRASLTISGAQAEDDAEYYCSSRDKSGSRLSVFGGGTKLTVL | binds |
